Assay in all cases: FP
One assay has as its target BCL-2ΔC.
A further assay concerns the target BCL-XLΔC.
For another assay, the target named is T1, BCL-WΔC.
T1 chain: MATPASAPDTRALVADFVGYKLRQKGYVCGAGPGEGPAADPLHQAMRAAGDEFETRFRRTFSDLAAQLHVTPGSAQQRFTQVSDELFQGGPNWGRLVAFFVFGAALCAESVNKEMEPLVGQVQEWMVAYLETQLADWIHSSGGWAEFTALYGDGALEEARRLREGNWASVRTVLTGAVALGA

The target of another assay is T2, MCL-1ΔNΔC.
T2 chain: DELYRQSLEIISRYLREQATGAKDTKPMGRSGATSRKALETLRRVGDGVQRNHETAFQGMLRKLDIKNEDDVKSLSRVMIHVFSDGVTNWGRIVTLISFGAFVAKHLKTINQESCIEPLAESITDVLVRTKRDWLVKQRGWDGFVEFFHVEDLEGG

B1: FITC-BIM_(A,cath,K)PA2 (BIMA, valine-citrulline cathepsin-cleavable linker, five lysines, DSPE-PEG(2000) lipid tail) (peptide)
chain: IWIAQELRRIGDEFNAYYARRVXKKKKK
modifications: fluorescein isothiocyanate (FITC) on the N-terminus; citrulline after the linker's valine (written X in the letters); DSPE-PEG(2000)-succinyl lipid tail on the side chain of the C-terminal lysine
For orientation: Kd means the equilibrium constant for the complex coming apart. Low readings indicate a tighter complex, high ones a looser complex. Take B1: the Kd in the assay with BCL-2ΔC is 187 nM; with BCL-XLΔC it was 165 nM; with BCL-WΔC it was 247 nM; with MCL-1ΔNΔC, 453 nM.

The values above are taken from publication PMC6719084 (2019).
